For one assay, the target named is -. The assay is described as follows: BLI; Figure 25B. (In general: Biolayer interferometry detects binding as a change in optical thickness at a sensor tip.)
Assay [1] addresses T1, cynomolgus macaque VISTA polypeptide (ELISA coat) (cynomolgus macaque, UniProt A0A7N9IB00 33-194).
T1 chain: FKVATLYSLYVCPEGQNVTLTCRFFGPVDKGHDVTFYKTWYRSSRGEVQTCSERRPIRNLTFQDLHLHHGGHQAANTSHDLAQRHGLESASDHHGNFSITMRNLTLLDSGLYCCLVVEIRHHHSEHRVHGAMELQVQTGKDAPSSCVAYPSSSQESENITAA
Briefly: ELISA. On the technique in general: An ELISA detects its analyte on a solid surface through an enzyme-linked reagent.

The target of assay [2] is human VISTA polypeptide (ELISA coat) (UniProt Q9H7M9 33-194). The assay is described as follows: ELISA.

B1: mFcγRIII (receptor)
chain: ALPKAVVKLDPPWIQVLKEDMVTLMCEGTHNPGNSSTQWFHNGRSIRSQVQASYTFKATVNDSGEYRCQMEQTRLSDPVDLGVISDWLLLQTPQRVFLEGETITLRCHSWRNKLLNRISFFHNEKSVRYHHYKSNFSIPKANHSHSGDYYCKGSLGSTQHQSKPVTITVQDPATTSSISLVWYHT
Molecule B1 displayed a Kd with - of 455 nM.

B2: VSTB112 IgG1 (antibody, V domains shown)
VH: QVQLVQSGAEVKKPGSSVKVSCKASGGTFSSYAISWVRQAPGQGLEWMGGIIPIFGTANYAQKFQGRVTITADESTSTAYMELSSLRSEDTAVYYCARSSYGWSYEFDYWGQGTLVTVSS
VL: DIQMTQSPSSLSASVGDRVTITCRASQSIDTRLNWYQQKPGKAPKLLIYSASSLQSGVPSRFSGSGSGTDFTLTISSLQPEDFATYYCQQSAYNPITFGQGTKVEIKR
In assay [1], B2 registered an EC50 of 0.0052 nM.

B3: anti-VISTA clone 4M2-C12 IgG1 (antibody)
heavy: not shown
light: DIVITQTPAILSTSPGEKVTMTCRASSSVGYIHWYQQKPGSSPKPWIYATSNLASGVPARFSGSGSGTSNSLTITRVEAEDAATYYCQQWSSYPPITFGGGTKLEVKRTVAAPSVFIFPPSDEQLKSGTASVVCLLNNFYPREAKVQWKVDNALQSGNSQESVTEQDSKDSTYSLSSTLTLSKADYEKHKVYACEVTHQGLSSPVTKSFNRGEC
As for B3, in assay [2], the EC50 was 0.246 nM.

In general, Kd refers to the equilibrium constant for the complex coming apart. A lower Kd goes with a tighter complex. Broadly, the EC50 is the concentration giving half of the maximal effect.
